{
  "source": "patent US20230030032A1",
  "about": "(AGGAMIN, published 2023)",
  "binders": {"B1": {"name": "chimeric anti-sEng antibody cENG10 (antibody, human IgG1, kappa, N297Q, V domains shown)", "VH": "EVQLEQSGPEVVKPGTSVKISCKTSGYTITEHTLHWIKQNQGKSLEWIGGINFDNGGTTYRQKFKDKATLTVDKSSSTAFMELRSLTSDDSAVYFCARRAYYYGSAFDYWGQGTTLTVSS", "VL": "ENVLTQSPAIMSASLGEKVTMTCRASSSVNYVYWYQQKSDASPKLWIYYTSNLAPGVPARFSGSGSGNSYSLTISSMEGEDAATYYCQQFISFPYTFGGGTKLEIKR", "notes": "Murine MAb 210 variable regions on human IgG1 / kappa constant regions; also called αEng; cENG10 (CHO-derived)"}, "B2": {"name": "MAb 210 (antibody, V domains shown)", "VH": "B1 VH", "VL": "ENVLTQSPAIMSASLGEKVTMTCRASSSVNYVYWYQQKSDASPKLWIYYTSNLAPGVPARFSGSGSGNSYSLTISSMEGEDAATYYCQQFISFPYTFGGGTKLEIK", "notes": "Murine monoclonal antibody from hybridoma; also called lead antibody"}},
  "key": {"purified human Bmp9": {"target": "T1, purified human Bmp9 (human, UniProt Q9UK05 320-429, limits assumed)", "T1 construct": "also called Bone Morphogenetic Protein 9", "T1 sequence (looked up)": "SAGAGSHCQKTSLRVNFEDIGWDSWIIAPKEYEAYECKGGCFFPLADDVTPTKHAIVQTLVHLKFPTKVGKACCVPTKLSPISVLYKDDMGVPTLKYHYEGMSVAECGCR", "experiment": "sandwich ELISA: cENG10 coated at 4 ug/mL, serial dilutions of Bmp9 alone, bound Bmp9 detected with biotinylated anti-Bmp9 antibody and an HRP conjugate", "protocol": "(§1) For the ELISA experiment shown, cENG10 antibody was coated onto microplates and incubated with the analyte (a preformed Bmp9/sEng complex, Bmp9 alone, or sEng alone). Bound Bmp9 was detected using a biotinylated anti-Bmp9 antibody and a secondary, HRP-conjugated antibody, allowing for colorimetric detection of cENG10 binding to the Bmp9/sEng complex.\n(§2) To test whether or not antibody cENG10 blocks binding of sEng and its ligands was assessed using a sandwich ELISA. To that end, purified human Bmp9 and sEng were mixed at equimolar ratio in PBS (final total concentration 1 μM), incubated for 30 min and serially diluted (in 1% BSA) to 0.02 to 20 nM. Control solutions containing only Bmp9 or sEng were also prepared. Antibody cENG10 (4 μg/mL) was coated onto microplate wells. After a washing step, the wells were blocked with 1% BSA. Serial dilutions of either the preformed Bmp9-sEng complex, sEng alone, or Bmp9 alone were added and the plates incubated for 90 min. After another wash step, bound Bmp9 was detected using a biotinylated anti-Bmp9 antibody and a secondary, HRP-conjugated antibody, allowing for colorimetric detection of cENG10 binding to the Bmp9/sEng complex."}, "[1]": {"target": "T2, endogenous sFlt-1 in pooled serum of pre-eclampsia patients (human, UniProt P17948-2 27-687, limits assumed)", "T2 construct": "also called sVEGFR1; soluble Flt-1 receptor", "T2 sequence (P17948 other isoform, or with tags, fused parts or gaps limits assumed)": "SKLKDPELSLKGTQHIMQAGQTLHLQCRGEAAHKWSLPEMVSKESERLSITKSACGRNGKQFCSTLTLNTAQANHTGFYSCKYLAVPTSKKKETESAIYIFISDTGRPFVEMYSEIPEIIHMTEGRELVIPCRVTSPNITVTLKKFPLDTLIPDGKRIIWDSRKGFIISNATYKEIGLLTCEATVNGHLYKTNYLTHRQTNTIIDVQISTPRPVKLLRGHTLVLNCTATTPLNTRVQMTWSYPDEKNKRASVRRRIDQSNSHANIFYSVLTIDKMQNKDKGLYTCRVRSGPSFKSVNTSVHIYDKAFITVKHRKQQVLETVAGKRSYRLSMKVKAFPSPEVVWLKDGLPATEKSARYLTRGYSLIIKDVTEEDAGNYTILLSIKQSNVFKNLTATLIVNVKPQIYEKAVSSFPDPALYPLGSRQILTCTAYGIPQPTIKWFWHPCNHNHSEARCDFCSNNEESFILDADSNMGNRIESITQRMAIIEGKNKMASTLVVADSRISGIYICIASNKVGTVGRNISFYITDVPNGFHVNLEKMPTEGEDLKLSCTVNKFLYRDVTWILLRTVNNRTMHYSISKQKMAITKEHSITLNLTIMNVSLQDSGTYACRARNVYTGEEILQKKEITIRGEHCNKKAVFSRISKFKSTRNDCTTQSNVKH", "experiment": "0.1 ml column, 1 mg antibody/ml beads, pooled serum of pre-eclampsia patients"}, "[2]": {"target": "T3, soluble Endoglin (sEng), recombinant, as spiked or purified protein (human, UniProt P17813 26-586, limits assumed)", "T3 construct": "sEng applied to columns (80 or 60 ng/ml), used in SEC and coated in ELISA; construct not specified there; also called spiked sEng", "T3 sequence (looked up)": "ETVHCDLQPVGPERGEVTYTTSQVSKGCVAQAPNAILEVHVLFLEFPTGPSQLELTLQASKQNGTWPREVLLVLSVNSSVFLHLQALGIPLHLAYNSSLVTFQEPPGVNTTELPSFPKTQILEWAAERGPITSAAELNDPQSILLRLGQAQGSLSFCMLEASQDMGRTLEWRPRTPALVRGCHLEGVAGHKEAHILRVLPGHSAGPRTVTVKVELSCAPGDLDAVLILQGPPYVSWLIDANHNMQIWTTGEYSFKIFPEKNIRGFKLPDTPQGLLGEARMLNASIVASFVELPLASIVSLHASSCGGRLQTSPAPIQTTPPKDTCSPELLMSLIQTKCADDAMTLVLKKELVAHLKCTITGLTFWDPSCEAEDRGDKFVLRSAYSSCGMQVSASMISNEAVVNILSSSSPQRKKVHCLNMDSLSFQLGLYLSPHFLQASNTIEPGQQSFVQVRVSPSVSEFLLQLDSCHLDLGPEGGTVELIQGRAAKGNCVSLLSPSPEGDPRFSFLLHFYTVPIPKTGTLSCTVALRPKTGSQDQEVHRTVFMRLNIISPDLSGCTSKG", "experiment": "sandwich ELISA: cENG10 coated at 4 ug/mL, serial dilutions of preformed equimolar Bmp9/sEng complex, bound Bmp9 detected with biotinylated anti-Bmp9 antibody and an HRP conjugate", "protocol": "as §1, §2"}, "[3]": {"target": "T4, recombinant human (rh) Endoglin ectodomain (residues 1-586) containing C-terminal 6xHis tag (human, UniProt P17813 26-586)", "T4 construct": "range 1-586; Purified from HEK-293 cells; the stated range 1-586 includes the signal peptide; also called purified sEng antigen; sEng", "T4 sequence": "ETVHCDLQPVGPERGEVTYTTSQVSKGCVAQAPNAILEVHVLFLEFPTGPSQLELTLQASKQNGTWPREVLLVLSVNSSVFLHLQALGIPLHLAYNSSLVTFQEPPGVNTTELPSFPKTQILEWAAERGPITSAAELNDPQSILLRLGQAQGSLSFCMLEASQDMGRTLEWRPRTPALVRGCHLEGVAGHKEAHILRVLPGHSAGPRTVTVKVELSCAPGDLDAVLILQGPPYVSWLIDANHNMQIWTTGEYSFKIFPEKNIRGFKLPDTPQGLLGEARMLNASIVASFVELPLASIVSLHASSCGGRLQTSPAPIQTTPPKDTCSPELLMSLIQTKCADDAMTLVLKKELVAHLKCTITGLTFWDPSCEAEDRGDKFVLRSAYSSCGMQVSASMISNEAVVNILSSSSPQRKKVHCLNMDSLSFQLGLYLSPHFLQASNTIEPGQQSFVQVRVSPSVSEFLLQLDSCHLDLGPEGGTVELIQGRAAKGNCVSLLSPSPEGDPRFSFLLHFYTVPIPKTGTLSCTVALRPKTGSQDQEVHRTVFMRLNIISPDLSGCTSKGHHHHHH", "experiment": "BLI (Octet QK), purified MAb on Protein-G biosensor, sEng 1-586 6xHis 50 nM in solution", "protocol": "Materials: Kinetics buffer—PBS solution containing 0.1% BSA and 0.05% Tween-20. Anti-sEng antibodies were purified from ascites of mice injected with hybridoma cells by Protein-G chromatography and buffer exchanged into PBS. For each run, 22 ug/ml (or 150 nM) of each antibody was loaded onto the Protein-G biosensor tip. Purified sEng antigen recombinant human (rh) Endoglin ectodomain (residues 1-586) containing C-terminal 6×His tag was purified from HEK-293 cells by metal affinity chromatography followed by size-exclusion chromatography pre-equilibrated in PBS. For each run, 3 ug/ml (or 50 nM) of sEng was used for association to MAbs bound to Protein-G biosensor tips. Protein-G Biosensor tips were purchased from the instrument supplier."}, "[4]": {"target": "T5, recombinant human (rh) Endoglin ectodomain (residues 1-586) fused with human IgG1 Fc (human, UniProt P17813 26-586)", "T5 construct": "range 1-586; The stated range 1-586 includes the signal peptide, which would be absent from the secreted protein; also called sEng-Fc; sEng/Fc fusion protein; not shown: human IgG1 Fc", "T5 sequence (looked up)": "T3 sequence (looked up)", "experiment": "BLI (Octet QK), MAb from hybridoma supernatant captured on anti-mouse IgG biosensor, sEng-Fc 170 nM in solution", "protocol": "Materials: Kinetics buffer—PBS solution containing 0.1% BSA and 0.05% Tween-20 was used as the kinetics buffer. Test samples—culture supernatants from top 21 hybridoma clones with the strongest signals for binding to the sEng-Fc antigen as determined by ELISA. sEng antigen—recombinant human (rh) Endoglin ectodomain (residues 1-586) fused with human IgG1 Fc, diluted to 170 nM (30 ug/ml) with kinetics buffer. Biosensors—streptavidin biosensors, preloaded with biotinylated sheep anti-mouse IgG.\nBinding affinities were determined using the ForteBio label-free Octet QK BLI system using the following protocol: [0237] i. Condition: Immerse biosensor tips in 200 uL of kinetics buffer for >10 min. [0238] ii. Baseline 1: Immerse biosensors in fresh culture medium for 1 min. [0239] iii. Load: Immerse biosensors in culture supernatant samples containing MAbs for 3 min. [0240] iv. Baseline: Immerse biosensors in kinetics buffer for 1 min. [0241] v. Binding/Association: Incubate biosensors with sEng-Fc Antigen for 5 min. [0242] vi. Dissociation: Incubate biosensors in kinetics buffer for 5 min.\nResponse signals (nm shifts) were used to calculate Kd values for the different antibodies."}},
  "data": [
    {"binder": "B1", "values": [
      {"measurement": "binding result", "setting": "purified human Bmp9", "result": "no binding (tested: 20 nM)"},
      {"measurement": "binding result", "setting": "[1]", "result": "no binding"},
      {"measurement": "EC50 (read off the curve)", "setting": "[2]", "result": "~3", "unit": "nM"}
    ]},
    {"binder": "B2", "values": [
      {"measurement": "Kd", "setting": "[3]", "result": 2.2, "unit": "nM"},
      {"measurement": "Kd", "setting": "[4]", "result": 0.61, "unit": "nM"}
    ]}
  ]
}
